Assay results reported in article PMC9045149.

Experiments:
[1] = biological target: 6xHis-tagged cell-wall binding domain of endolysin CD16/50L, wild type (Clostridioides difficile phage ϕHN50 (identical in ϕHN16-1)); test: SEC; Superdex 75 10/300 GL, 50 mM Tris-HCl (pH 8.0), 500 mM NaCl, 0.5 mL/min; approximately 2.5 mg/mL of each purified 6xHis-CBD variant injected separately; size from calibration with standard proteins
[2] = biological target: PG-PS complex; test: co-precipitation (pull-down) with PG-PS complex, SDS-PAGE band quantification; details: parent: est. 1.0; read off a plot
[3] = biological target: CD16/50L CBD wild type fused to SmBit and to LgBit (CBD-SmBit/LgBit, plasmid pWP004) (Clostridioides difficile phage ϕHN50 (identical in ϕHN16-1)); test: split reporter (BiFC, NanoBiT); BitLuc^opt split luciferase in live C. difficile R20291; CBD-SmBit and CBD-LgBit co-expressed, induced with 4% (wt/vol) xylose for 2 h; Nano-Glo (furimazine) substrate, luminescence read
[4] = biological target: CD16/50L CBD C234A fused to SmBit and to LgBit; test: split complementary luciferase assay (SmBit/LgBit) in C. difficile cells; details: 4% (wt/vol) xylose for 2 h; furimazine substrate incubated for 5 min; parent: est. 6.0; read off a plot
[5] = biological target: CD16/50L CBD E239A fused to SmBit and to LgBit; test: as above; details: 4% (wt/vol) xylose for 2 h; furimazine substrate incubated for 5 min; parent: est. 6.0; read off a plot
[6] = biological target: CD16/50L CBD F248A fused to SmBit and to LgBit; test: as above; details: 4% (wt/vol) xylose for 2 h; furimazine substrate incubated for 5 min; parent: est. 6.0; read off a plot
[7] = biological target: CD16/50L CBD M260A fused to SmBit and to LgBit; test: as above; details: 4% (wt/vol) xylose for 2 h; furimazine substrate incubated for 5 min; parent: est. 6.0; read off a plot
[8] = biological target: CD16/50L CBD Q250A fused to SmBit and to LgBit; test: as above; details: 4% (wt/vol) xylose for 2 h; furimazine substrate incubated for 5 min; parent: est. 6.0; read off a plot
[9] = biological target: CD16/50L CBD W257A fused to SmBit and to LgBit; test: as above; details: 4% (wt/vol) xylose for 2 h; furimazine substrate incubated for 5 min; parent: est. 6.0; read off a plot
[10] = biological target: CD16/50L CBD Y202A fused to SmBit and to LgBit; test: as above; details: 4% (wt/vol) xylose for 2 h; furimazine substrate incubated for 5 min; parent: est. 6.0; read off a plot
[11] = biological target: CD16/50L CBD (Y202A, W257A) fused to SmBit and to LgBit; test: as above; details: 4% (wt/vol) xylose for 2 h; furimazine substrate incubated for 5 min; parent: est. 6.0; read off a plot

6xHis-tagged cell-wall binding domain of endolysin CD16/50L, wild type (domain or fragment)
stoichiometry N [1]: 2

6xHis-tagged cell-wall binding domain of endolysin CD16/50L, wild type W257A
ratio to parent [2]: 0.35

6xHis-tagged cell-wall binding domain of endolysin CD16/50L, wild type Y202A; W257A
ratio to parent [2]: 0.47

CD16/50L CBD wild type fused to SmBit and to LgBit (CBD-SmBit/LgBit, plasmid pWP004) (domain or fragment)
fold increase of the luciferase signal over the single-fragment controls [3]: < 300 fold

CD16/50L CBD wild type fused to SmBit and to LgBit (CBD-SmBit/LgBit, plasmid pWP004) C234A
response [4]: 6 log RLU

CD16/50L CBD wild type fused to SmBit and to LgBit (CBD-SmBit/LgBit, plasmid pWP004) E239A
response [5]: 6.1 log RLU

CD16/50L CBD wild type fused to SmBit and to LgBit (CBD-SmBit/LgBit, plasmid pWP004) F248A
response [6]: 6 log RLU

CD16/50L CBD wild type fused to SmBit and to LgBit (CBD-SmBit/LgBit, plasmid pWP004) M260A
response [7]: 6 log RLU

CD16/50L CBD wild type fused to SmBit and to LgBit (CBD-SmBit/LgBit, plasmid pWP004) Q250A
response [8]: 6 log RLU

CD16/50L CBD wild type fused to SmBit and to LgBit (CBD-SmBit/LgBit, plasmid pWP004) W257A
response [9]: 4.9 log RLU

CD16/50L CBD wild type fused to SmBit and to LgBit (CBD-SmBit/LgBit, plasmid pWP004) Y202A
response [10]: 5.9 log RLU

CD16/50L CBD wild type fused to SmBit and to LgBit (CBD-SmBit/LgBit, plasmid pWP004) Y202A; W257A
response [11]: 3.5 log RLU
